From patent US20170037425A1, “METHOD FOR IMPROVING PLANT TRAIT” (SHANGHAI INSTITUTES FOR BIOLOGICAL SCIENCES, CHINESE …, priority 2012, published 2017)

B1: cpGFP: green fluorescent protein from Chiridius poppei (AB185173), SEQ ID NO: 52 (protein, listed as Chiridius poppei)
chain: MTTFKIESRIHGNLNGEKFELVGGGVGEEGRLEIEMKTKDKPLAFSPFLLSHCMGYGFYHFASFPKGTKNIYLHAATNGGYTNTRKEIYEDGGILEVNFRYTYEFNKIIGDVECIGHGFPSQSPIFKDTIVKSCPTVDLMLPMSGNIIASSYARAFQLKDGSFYTAEVKNNIDFKNPIHESFSKSGPMFTHRRVEETHTKENLAMVEYQQVFNSAPRDM
B2: anm2CP: chromoprotein from Anthomedusae sp. SL-2003 (AY485336), SEQ ID NO: 48 (protein, listed as Anthomedusae sp.)
chain: MEGGPALFQSDMTFKIFIDGVVNDQKFTIIADGSSKFPHGDFNVHAVCETGKLPMSWKPICHLIQYGEPFFAKYPNGISHFAQECFPEGLTIDRTVRFENDGTMTSHHTYELDGTCVISRITVNCDGFQPDGPIMKDQLVDILPTETHMFPHGSNAVRQLCYIGFTTADGGLMMSHFDSKLTFNGSRAIKIPGPHFVTVIIKQMKDTSDKRDHVCQREVTYAHSVPRITSAI
B3: efofCP/RFP: protein from Echinopora forskaliana (EU498726), SEQ ID NO: 34 (protein, listed as Echinopora forskaliana)
chain: MSVIKQVMKTKLHLEGTVNGHDFTIEGKGEGKPYEGLQHMKMTVTKGAPLPFSVHILTPSHMYGSKPFNKYPADIPDYHKQSFPEGMSWERSMIFEDGGVCTASNHSSINLQENCFIYDVKFHGVNLPPDGPVMQKTIAGWEPSVETLYVRDGMLKSDTAMVFKLKGGGHHRVDFKTTYKAKKPVKLPEFHFVEHRLELTKHDKDFTTWDQQEAAEGHFSPLPKALP
B4: scubGFP: green fluorescent protein from Scolymia cubensis (AY037767), SEQ ID NO: 40 (protein, listed as Echinopora forskaliana)
chain: MQRAGMKVKEHMKIKLRMGGTVNGKHFAVNGTGDGYPYQGKQILKLIVEGSEPLPFAFDILSAAFQYGNRAFTEYPTEIADYFKQSFEFGEGFSWERSFTFEDGAICVATNDITMVGGEFQYDIRFDGLNFPEDGPVMQKKTVKWEPSTEIMYMQNGVLKGEVNMALLLQDKSHYRCDLKTTYKAKNNVPHPPGYHYVDHCIEILEERKDHVKLREHAKARSSLSPTSAKERKA
B5: spisCP: non-fluorescent chromoprotein from Stylophora pistillata (DQ206398), SEQ ID NO: 38 (protein, listed as Echinopora forskaliana)
chain: MSHSKQALADTMKMTWLMEGSVNGHAFTIEGEGTGKPYEGKQSGTFRVTKGGPLPFAFDIVAPTLKYGFKCFMKYPADIPDYFKLAFPEGLTYDRKIAFEDGGCATATVEMSLKGNTLVHKTNFQGGNFPIDGPVMQKRTLGWEPTSEKMTPCDGIIKGDTIMYLMVEGGKTLKCRYENNYRANKPVLMPPSHFVDLRLTRTNLDKEGLAFKLEEYAVARVLEV
B6: rfloRFP: red fluorescent protein from Ricordea florida (AY037773), SEQ ID NO: 42 (protein, listed as Ricordea florida)
chain: MSALKEEMKIKLTLVGVVNGHPFKIIGDGKGKPYEGSQELTLAVVEGGPLPFSYDILTTIVHYGNRAFVNYPKDIPDIFKQTCSGPGAGYSWQRTMSFEDGGVCTATSHIRVDGDTFNYDIHFMGADFPLNGPVMQKRTVKWEPSTEIMFQCDGLLRGDVAMSLLLKGGGHYRCDFKTIYKPKKNVKMPGYHFVDHCIEITSQQDDYNVVELYEGAVAHYSPLQKPCQAKA
B7: phiYFP: yellow fluorescent protein from Phialidium sp. SL-2003 (AY485333), SEQ ID NO: 50 (protein)
chain: MSSGALLFHGKIPYVVEMEGNVDGHTFSIRGKGYGDASVGKVDAQFICTTGDVPVPWSTLVTTLTYGAQCFAKYGPELKDFYKSCMPEGYVQERTITFEGDGVFKTRAEVTFENGSVYNRVKLNGQGFKKDGHVLGKNLEFNFTPHCLYIWGDQANHGLKSAFKIMHEITGSKEDFIVADHTQMNTPIGGGPVHVPEYHHITYHVTLSKDVTDHRDNMSLVETVRAVDCRKTYL
modifications: Aequorea Victoria
B8: ceriantRFP: red fluorescent protein from Cerianthus sp. DW-2003 (AY296063), SEQ ID NO: 46 (protein, listed as Cerianthus sp.)
chain: MNLSKNVSVSVYMKGNVNNHEFEYDGEGGGDPYTGKYSMKMTLRGQNCLPFSYDIITTAFQYGFRVFTKYPEGIVDYFKDSLPDAFQWNRRIVFEDGGVLNMSSDITYKDNVLHGDVWAVGVNFPPNGPVMKNEIVMEEPTEETFTPKNGVLVGFCPKAYLLKDGSYYYGNMTTFYRSKKSGQAPPGYHFVKHRLVKTNVGHGFKTVEQTEYATAHVSDLPK
B9: efasCFP: cyan fluorescent protein from Eusmilia fastigiata (DQ206397), SEQ ID NO: 36 (protein, listed as Echinopora forskaliana)
chain: MSFSKQVLNDVTMTYFMEGSVNGHDFTIEGEGTGKPYEGHQRFNLRVTKGAPLPFAVDILSAAFAYGNRCFTKYPKEIPDFFKQSLPEDMSWERTMTFEDGGIVAISAHIRLIGNRFEHKSKFVGVNFPADGPVMQRKTLGWEPSSEKMTPRDGILKGYVPSFLVLQGGGNYRCDYDTSYRAMKPVEMPGGHFIQHRIVRRDIKKDSNGNTWQIQEDAFAHNSEVPDSA
B10: rmueGFP: green fluorescent protein from Renilla muelleri (AY015996), SEQ ID NO: 44 (protein, listed as Renilla muelleri)
chain: MSKQILKNTCLQEVMSYKVNLEGIVNNHVFTMEGCGKGNILFGNQLVQIRVTKGAPLPFAFDIVSPAFQYGNRTFTKYPNDISDYFIQSFPAGFMYERTLRYEDGGLVEIRSDINLIEDKFVYRVEYKGSNFPDDGPVMQKTILGIEPSFEAMYMNNGVLVGEVILVYKLNSGKYYSCHMKTLMKSKGVVKEFPSYHFIQHRLEKTYVEDGGFVEQHETAIAQMTSIGKPLGSLHEWV
B11: hcriCP: chromoprotein from Heteractis crispa (AF363776), SEQ ID NO: 32 (protein)
chain: MAGLLKESMRIKMYMEGTVNGHYFKCEGEGDGNPFTGTQSMRIHVTEGAPLPFAFDILAPCCEYGSRTFVHHTAEIPDFFKQSFPEGFTWERTTTYEDGGILTAHQDTSLEGNCLIYKVKVLGTNFPADGPVMKNKSGGWEPCTEVVYPENGVLCGRNVMALKVGDRRLICHLYTSYRSKKAVRALTMPGFHFTDIRLQMPRKKKDEYFELYEASVARYSDLPEKAN
modifications: Entacmaea quadricolor

Test: In vitro H2O hydrolysis and oxygen evolution catalyzed by LEAT protein under light
Assay type: biochemical
Parameters: key to O2 evolution activity: +: similar O2 evolution activity as that of YFP; ++: higher O2 evolution activity than that of YFP by at least one order of magnitude; weak: lower activity than that of YFP by at least one order of magnitude
Details: water hydrolysis and O2 evolution under light, relative to YFP
Description: 1.85 ml of 50 mM phosphate buffer (pH6.5) was added in the reaction vessel of Clark-type oxygen electrode, then LEAT proteins (at a final concentration of 0.02-1 μg/ml) and 400 μM 2,3,5-trimethyl-1,4-benzoquinone (TMBQ) or other quinones were sequentially added into the buffer in dark. The oxygen evolution rate was measured under the light with corresponding excitation wave length for LEAT proteins and light intensity at 1-2 μmol m^−2 s^−1.

Molecule | O2 evolution activity
B1 | +
B2 | +
B3 | +
B4 | +
B5 | ++
B6 | ++
B7 | ++
B8 | ++
B9 | +
B10 | ++
B11 | +
